Data published in the supplement of paper PMC10724198.
± gives the standard deviation of the averaged measurements.

Tested on: Saccharomyces cerevisiae
Assay: protein stability index of tFT-peptide fusion (C-terminal peptide) (PSI (0-1 scale)); higher = more stable (slower turnover)
Settings: temperature: 30 C
Method: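 MPS profiling in S. cerevisiae of the yeast C-terminome library: the last 12 aa of each annotated ORF are fused to the C-terminus of a sfGFP-mCherry timer, after a GGGS linker. Cells are FACS-sorted into 8 mCherry/sfGFP bins and deep-sequenced. PSI runs from 0 (unstable) to 1 (stable); wild type and das1Δ backgrounds, two technical replicates each.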

[1] = genetic background: das1 deletion

Sequence	protein stability index [1]	protein stability index (genetic background: wild type)
TASEIQRTKSSI [YGR035C C-terminal 12 aa]	0.711 ± 0.03	0.683 ± 0.022
TDEFDMLIGIDH [COG6 C-terminal 12 aa]	0.697 ± 0.024	0.707 ± 0.025
TDLENETFIYPL [YCT1 C-terminal 12 aa]	0.722 ± 0.022	0.793 ± 0.072
TDNTVYQKFLKY [ILV1 C-terminal 12 aa]	0.674 ± 0.014	0.692 ± 0.041
TDVKKFIHELCE [TRP3 C-terminal 12 aa]	0.69 ± 0.014	0.679 ± 0.034
TEKKINTRPPFR [DAM1 C-terminal 12 aa]	0.7012 ± 0.0011	0.656 ± 0.011
TEMATDASARMV [TPO4 C-terminal 12 aa]	0.687 ± 0.0097	0.682 ± 0.0089
TEPVKQVLGNKE [NMA1 C-terminal 12 aa]	0.689 ± 0.012	0.675 ± 0.014
TFFDIRQKFVVV [BOP2 C-terminal 12 aa]	0.493 ± 0.012	0.44744 ± 0.00038
TFLYYYFPLPTN [YPL080C C-terminal 12 aa]	0.656 ± 0.029	0.69 ± 0.028
TFPLVMMKTTYY [YFR009W-A C-terminal 12 aa]	0.72 ± 0.065	0.697 ± 0.044
TGTSNSVLVIIT [YPL136W C-terminal 12 aa]	0.677 ± 0.013	0.684 ± 0.033
THKKPGFENYSI [IRC13 C-terminal 12 aa]	0.70632 ± 0.00041	0.704 ± 0.017
TIAIGKIVKIAE [SUP35 C-terminal 12 aa]	0.7085 ± 0.0052	0.685 ± 0.013
TIIYPLFIFFSL [YMR105W-A C-terminal 12 aa]	0.312 ± 0.022	0.225 ± 0.0044
TISRLPPRSWTN [YCL042W C-terminal 12 aa]	0.717 ± 0.037	0.739 ± 0.015
TIYDGEAVAKYI [PRE5 C-terminal 12 aa]	0.6775 ± 0.0025	0.7 ± 0.046
TKAIEDAKKEMK [NUP2 C-terminal 12 aa]	0.714 ± 0.013	0.737 ± 0.11
TKISIRKAPKFF [MRPL31 C-terminal 12 aa]	0.701 ± 0.019	0.656 ± 0.024
TKNLVPGFSDLM [SEC61 C-terminal 12 aa]	0.708 ± 0.012	0.676 ± 0.011
TKNTCIRRLSNQ [YLR031W C-terminal 12 aa]	0.709 ± 0.018	0.698 ± 0.036

Sequence	protein stability index [1]	protein stability index (genetic background: wild type)
TLISGKEDGPTI [SRY1 C-terminal 12 aa]	0.69 ± 0.028	0.701 ± 0.044
TLKKRFGLVPGQ [NOP10 C-terminal 12 aa]	0.7141 ± 0.0036	0.686 ± 0.029
TLKKVTQNFYFD [LMO1 C-terminal 12 aa]	0.7094 ± 0.0054	0.6724 ± 0.0018
TLVADQEDDVIF [VMA8 C-terminal 12 aa]	0.7039 ± 0.0067	0.715 ± 0.025
TLVGTPGYRITL [RCE1 C-terminal 12 aa]	0.7168 ± 0.0018	0.695 ± 0.02
TNDRLQSILHDL [MEF2 C-terminal 12 aa]	0.7148 ± 0.0071	0.702 ± 0.013
TNERQLNPWICN [YML090W C-terminal 12 aa]	0.7061 ± 0.0031	0.688 ± 0.031
TPDVLAAGPQFE [PCK1 C-terminal 12 aa]	0.7065 ± 0.0036	0.6787 ± 0.0029
TQKKVDQRWKKH [SEN54 C-terminal 12 aa]	0.692 ± 0.016	0.737 ± 0.082
TQLVQKALERFK [RIC1 C-terminal 12 aa]	0.734 ± 0.025	0.676 ± 0.084
TSDGSASDLEII [MCM10 C-terminal 12 aa]	0.686 ± 0.0096	0.692 ± 0.024
TSLEKQINSIKK [NSP1 C-terminal 12 aa]	0.753 ± 0.036	0.70199 ± 0.0005
TSNGGVEETMKM [ARX1 C-terminal 12 aa]	0.6815 ± 0.00071	0.676 ± 0.025
TSNSPSPDLMEK [SMA2 C-terminal 12 aa]	0.7018 ± 0.0012	0.705 ± 0.042
TSPPEGMEPKHW [SGT1 C-terminal 12 aa]	0.696 ± 0.013	0.687 ± 0.0088
TVIFSCVPGRRV [RAX1 C-terminal 12 aa]	0.7205 ± 0.0062	0.709 ± 0.0011
TVNYNDKTISGN [VPS30 C-terminal 12 aa]	0.689 ± 0.022	0.692 ± 0.055
TYNSYTEPEELR [FMP27 C-terminal 12 aa]	0.692 ± 0.025	0.716 ± 0.05
VAHRENLAFPPR [PRO1 C-terminal 12 aa]	0.732 ± 0.02	0.707 ± 0.012
VARRITDHTCLM [YLR364C-A C-terminal 12 aa]	0.677 ± 0.0084	0.696 ± 0.031
